The results in this text go back to PMC1513511.

Data set [1] addresses T1, H6MobC221 (pC221 MobC) (plasmid pC221, UniProt Q6V0Y1 1-132).
T1 sequence: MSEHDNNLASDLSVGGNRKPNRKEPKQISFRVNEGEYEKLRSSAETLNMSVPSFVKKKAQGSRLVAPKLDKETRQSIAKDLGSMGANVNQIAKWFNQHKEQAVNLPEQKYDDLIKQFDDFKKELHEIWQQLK
The experiment in a line: SPR. On the technique in general: Surface plasmon resonance follows binding to a sensor surface in real time, without labels.

Data set [2] has as its target T1, H6MobC221 (pC221 MobC). The experiment in a line: SPR. This is another data set of the same source.

In general, Kd refers to a measure of binding affinity in units of concentration. Read a low Kd as higher affinity.

B1: 21Pmut (randomized mcb2 oligoduplex) (dsDNA)
DNA 1: AACGAGAGTAGGTCAATATA
DNA 2: TATATTGACCTACTCTCGTT
As to B1, the binding result with H6MobC221 (pC221 MobC) [1] was “no binding”.

B2: 21P (mcb2 oligoduplex) (dsDNA)
DNA 1: AACGAAGTGGCTAGAATATA
DNA 2: TATATTCTAGCCACTTCGTT
Regarding B2, the Kd with H6MobC221 (pC221 MobC) [2] is about 1800 nM.
